Test results taken from patent US5693759.

What was measured:
[1] = biological target: Tax-response complex-1 (TRC-1), purified from SLB-I nuclear extract (human) (UniProt P17275)
[2] = biological target: T1, TRC-1 (p21SNF1/JunB heteromultimer) (Homo sapiens) (UniProt Q9NR55+P17275); assay: competition; details: vs 12.5-fold for s2
T1 sequence 1: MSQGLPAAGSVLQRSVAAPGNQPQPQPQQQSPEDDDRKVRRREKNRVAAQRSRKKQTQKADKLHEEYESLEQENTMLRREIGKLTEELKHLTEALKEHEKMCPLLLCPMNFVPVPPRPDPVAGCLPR
T1 sequence 2: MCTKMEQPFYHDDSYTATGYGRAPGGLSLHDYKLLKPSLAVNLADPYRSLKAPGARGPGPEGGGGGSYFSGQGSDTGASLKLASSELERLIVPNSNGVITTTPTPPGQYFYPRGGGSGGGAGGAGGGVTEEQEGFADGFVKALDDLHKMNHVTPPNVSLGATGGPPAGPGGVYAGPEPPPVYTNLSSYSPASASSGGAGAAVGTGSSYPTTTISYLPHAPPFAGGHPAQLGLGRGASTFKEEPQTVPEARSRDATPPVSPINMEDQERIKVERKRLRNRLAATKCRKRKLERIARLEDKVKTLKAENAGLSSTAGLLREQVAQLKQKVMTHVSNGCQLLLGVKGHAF

[3] = biological target: T1, TRC-1 (p21SNF1/JunB heteromultimer) (Homo sapiens); assay: EMSA; details: self-competition; abolished at 100-fold

Row | Substance | binding signal (fold excess for ~55% competition) [2] | further results
1 | HTLV-1 Tax protein, expressed in bacteria as a His6 fusion at its carboxy terminus (from UniProt P03409) | – | binding of purified TRC-1 to site2 probe in EMSA, phosphorimage analysis [1]: 2.5 to 6.5 fold
2 | HTLV-1 LTR 21-bp repeat site3 (s3) | 50 | –
3 | HTLV-1 LTR 21-bp repeat site2 (s2) | – | binding signal (% competition at 12.5-fold excess) [3]: 55
4 | HTLV-1 LTR 21-bp repeat site1 (s1) | 100 | –
